Measured values: patent US20150376286A1 (Amgen, published 2015)
Positions count from the first letter of the chain named.

T1: soluble CGRP receptor-muFc fusion protein (human)
T1 construct: also called CGRP R-muFc; not shown: mouse Fc
T1 chain 1: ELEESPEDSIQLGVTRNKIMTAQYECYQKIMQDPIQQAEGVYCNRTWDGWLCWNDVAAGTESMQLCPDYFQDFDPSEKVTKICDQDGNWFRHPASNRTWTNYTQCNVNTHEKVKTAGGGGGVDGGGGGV
T1 chain 2: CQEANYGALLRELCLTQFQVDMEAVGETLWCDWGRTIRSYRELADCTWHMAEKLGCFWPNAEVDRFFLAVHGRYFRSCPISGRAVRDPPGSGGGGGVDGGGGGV

T2: cynomolgus CGRP receptor (cynoCRLR + cynoRAMP1) (cynomolgus monkey)
T2 chain 1: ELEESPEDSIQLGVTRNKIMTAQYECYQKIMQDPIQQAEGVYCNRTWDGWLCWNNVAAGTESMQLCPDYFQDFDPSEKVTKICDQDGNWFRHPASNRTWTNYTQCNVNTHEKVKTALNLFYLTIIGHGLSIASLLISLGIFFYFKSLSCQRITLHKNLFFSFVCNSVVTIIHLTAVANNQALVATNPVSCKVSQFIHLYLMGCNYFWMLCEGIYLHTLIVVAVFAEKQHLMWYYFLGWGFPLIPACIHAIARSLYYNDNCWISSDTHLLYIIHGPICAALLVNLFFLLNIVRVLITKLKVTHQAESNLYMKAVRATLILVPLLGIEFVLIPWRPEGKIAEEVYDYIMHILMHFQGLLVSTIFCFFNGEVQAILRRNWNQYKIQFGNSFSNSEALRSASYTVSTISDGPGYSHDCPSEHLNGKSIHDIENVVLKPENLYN
T2 chain 2: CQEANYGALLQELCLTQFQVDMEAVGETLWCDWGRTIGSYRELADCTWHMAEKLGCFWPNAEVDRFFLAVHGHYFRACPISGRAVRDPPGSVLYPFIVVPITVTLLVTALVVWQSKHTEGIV

T3: chimeric CGRP receptor: CRLR wt + RAMP1 chimera #2 (Q43 to E53) (human; human/rat chimera, UniProt Q16602 23-461; O60894 27-148)
T3 construct: also called CRLR wt+RAMP1 Q43-E53
T3 chain 1: T2 chain 1 with N55D, V431L
T3 chain 2: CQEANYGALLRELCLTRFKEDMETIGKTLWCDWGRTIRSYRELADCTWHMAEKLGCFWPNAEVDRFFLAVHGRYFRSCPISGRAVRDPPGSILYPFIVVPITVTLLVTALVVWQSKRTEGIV

T4: chimeric CGRP receptor: CRLR wt + RAMP1 chimera #3 (R67 to E78) (human; human/rat chimera, UniProt Q16602 23-461; O60894 27-148)
T4 construct: also called CRLR wt+RAMP1 R67-E78
T4 chain 1: T2 chain 1 with N55D, V431L
T4 chain 2: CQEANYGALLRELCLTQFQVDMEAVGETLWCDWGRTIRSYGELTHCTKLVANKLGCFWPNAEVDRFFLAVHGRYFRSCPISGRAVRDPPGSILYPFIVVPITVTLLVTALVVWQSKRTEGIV

B1: 3B6 (antibody, human IgG2, lambda, V domains shown)
VH: not shown
VL: SSELTQDPTVSVALGQTVKITCQGDSLRSFYASWYQQKPGQAPVLVFYGKNNRPSGIPDRFSGSSSGNTASLTITGAQAEDEADYYCNSRDSSVYHLVLGGGTKLTVLG
notes: also called 03B6; 03B6.2
B2: 33B5 (antibody, V domains shown)
VH: not shown
VL: DIQMTQSPSSLSASVGDRVTITCRASQGIRNDLGWYQQKPGKAPKRLIYVASSLQSGVPSRFSGSGSGTEFTLTISSLQPEDFATYYCLQYNTYPLTFGGGTKVEIK
B3: 12G8 (antibody, human IgG2, lambda, V domains shown)
VH: QVQLVESGGGVVQPGRSLRLSCAASGFTFSSFGMHWVRQAPGKGLEWVAVISFDGSIKYSVDSVKGRFTISRDNSKNTLFLQMNSLRAEDTAVYYCARDRLNYYDSSGYYHYKYYGLAVWGQGTTVTVSS
VL: QSVLTQPPSVSAAPGQKVTISCSGSSSNIGNNYVSWYQQLPGTAPKLLIYDNNKRPSGIPDRFSGSKSGTSATLGITGLQTGDEADYYCGTWDSRLSAVVFGGGTKLTVLG
notes: also called 12G8.2
B4: 4E4 (antibody, human IgG2, lambda, V domains shown)
VH: B3 VH with L117M
VL: B3 VL with A72T
notes: also called 04E4; 04E4.2

What was measured:
[1] = molecular target: T1, soluble CGRP receptor-muFc fusion …; assay: Western blot
Experimental: The sample containing βME was then boiled for 4 min. […] Gels were electroblotted onto 0.2 μm nitrocellulose filters (Invitrogen). The blots were washed with Tris-buffered saline+1% Tween 20 (TBST) and then blocked with TBST+5% powered dry milk for 30 min. The blots were cut into strips along the molecular weight marker lanes. […] Blots were incubated with the antibodies for one hour followed by 3×10 min washes with TBST+1% milk. The blots treated with the huCGRP R antibodies were then incubated with goat anti-mouse IgG-Fc-HRP (1:10,000 in TBST+1% milk) and the blots treated with anti-huRAMP1 (N-20 anti-RAMP1 goat polyclonal antibody, Santa Cruz Biotech, CA) were incubated with rabbit anti-goat IgG-Fc-HRP (1:10,000) for 20 min. Blots were washed 3×15 min with TBST. The huCGRP R and anti-huRAMP1 antibody blots were treated with Pierce Supersignal West Pico Detection reagent, and the anti-mouse and anti-human IgG-Fc-HRP blots were treated with Pierce standard Detection Reagent (1 min.). Blots were then exposed with Kodak Biomax MS X-ray film.

[2] = molecular target: human adrenomedullin receptor 1 (hCRLR + hRAMP2) (human, UniProt O60895 43-175); assay: cell-based or functional assay
rat CGRP receptor = rat CGRP receptor (rat, UniProt Q63118 24-464; Q9JJ74 27-148); assay: cell-based or functional assay
[3] = molecular target: T2, cynomolgus CGRP receptor (cynoCRLR + …); assay: cell-based or functional assay
[4] = molecular target: human amylin AMY1 receptor (hCTR + hRAMP1) (human, UniProt P30988 25-474); assay: cell-based or functional assay
[5] = molecular target: human adrenomedullin receptor 2 (hCRLR + hRAMP3) (human, UniProt O60896 24-148); assay: cell-based or functional assay
[6] = molecular target: T5, chimeric CGRP receptor: CRLR chimera #1 (L24 to Q33) + RAMP1 wt (human/rat chimera; human, UniProt Q16602 1-461; O60894 27-148); assay: FACS on transfected 293-6E cells
T5 construct: also called CRLR L24-Q33+RAMP wt
Experimental: (§1) Cells were harvested after 72 hr, washed with PBS+0.5% BSA, and counted. Each transfected cell line was resuspended at a dilution of 5×10⁵ cells per 100 μl PBS/BSA. 100 μl of cell suspension was aliquot per well in a 96-well round-bottom plate (Falcon). The cells were pelleted at 1200 rpm for 5 min. […] Cells were incubated on ice for 1 hr. and then washed twice with PBS/BSA. […] Cells were incubated on ice in the dark for 1 hr. and then washed twice with PBS/BSA. Cells were resuspended in 200 μl PBS/BSA and analyzed using a FACS Calibur.

[7] = molecular target: T3, chimeric CGRP receptor: CRLR wt + RAMP1 …; assay: FACS on transfected 293-6E cells
Experimental: as §1

[8] = molecular target: T4, chimeric CGRP receptor: CRLR wt + RAMP1 …; assay: FACS on transfected 293-6E cells
Experimental: as §1

[9] = molecular target: T6, human CGRP receptor (CRLR + RAMP1) (human, UniProt Q16602 23-461; O60894 27-148); assay: FACS on transfected 293-6E cells
T6 construct: also called hCGRP R; huCGRP R
Experimental: as §1

[10] = molecular target: T6, human CGRP receptor (CRLR + RAMP1); assay: FACS Kd determination on AM-1 CHO huCGRP R cells; right-hand curve, cell density not labelled on the sheet
Experimental: (§2) Briefly, AM-1 CHO huCGRP R-expressing cells, prepared as described above, were plated in 96-well plates at densities of 16,000 or 160,000 cells per well in DMEM medium containing 10% FBS, NEAA, PS, L Glut, NaPyr and 0.05% sodium azide. […] After an overnight incubation at 4° C. in a total volume of 120 μl, on a plate shaker, the cells were washed 2× with PBS+2% FBS, centrifuging and discarding supernatant each time. 100 μl/well of G anti-Hu Fc Cy5 (5 μg/mL; Jackson ImmunoResearch Laboratories Inc., West Grove, Pa., USA) containing 7AAD (5 μl/well) was then added and incubated at 4° C. for 40 min. The cells were washed 2× with PBS+2% FBS, centrifuging and discarding the supernatant each time. 100 μl PBS+2% FBS buffer was then added and analyzed by FACS to determined the binding geomean. The Kd was calculated using KinExA software by taking the negative geomean at each antibody concentration as the amount of free Ab present Rathanaswami, et al., Biochemical and Biophysical Research Communications 334 (2005) 1004-1013.

[11] = molecular target: T6, human CGRP receptor (CRLR + RAMP1); assay: 125I-CGRP competition binding, HTB-10 cell membranes
Experimental: The plates were incubated at room temperature for 2 hours with shaking at 60 rpm, and then the contents of each well were filtered over 0.5% polyethyleneimine (PEI)-treated (for at least one hour) GF/C 96-well filter plates. The GF/C filter plates were washed six times with ice-cold 50 mM Tris, pH 7.5 and dried in an oven at 55° C. for 1 hour. The bottoms of the GF/C plates were then sealed. 40 μl Microscint™ 20 was added to each well, the tops of the GF/C plates were sealed with TopSeal™-A (a press-on adhesive sealing film), and the GF/C plates were counted with TopCount NXT (Packard). The data were analyzed using Prizm (GraphPad Software Inc.)

[12] = molecular target: T6, human CGRP receptor (CRLR + RAMP1); assay: cell-based or functional assay
[13] = molecular target: T6, human CGRP receptor (CRLR + RAMP1); assay: FACS on AM-1 CHO huCGRP R cells, KinExA n-curve analysis
Experimental: as §2

[14] = molecular target: T6, human CGRP receptor (CRLR + RAMP1); assay: FACS Kd determination on AM-1 CHO huCGRP R cells; left-hand curve, cell density not labelled on the sheet
Experimental: as §2

Binder | binding result [1] | cAMP assay IC50 [2] [nM] | cAMP assay IC50 (rat CGRP receptor) [nM] | cAMP assay IC50 [3] [nM] | cAMP assay IC50 [4] [nM] | cAMP assay IC50 [5] [nM] | binding result [6] | binding result [7] | binding result [8] | binding result [9] | EC50 (read off the curve) [10] [nM] | Ki [11] [nM] | cAMP assay IC50 [12] [nM] | Kd [13] [nM] | EC50 (read off the curve) [14] [nM]
B1 | binds | > 1000 | > 1000 | 2.22 | > 1000 | > 1000 |  |  |  |  |  |  |  |  | 
B2 |  |  |  |  |  |  | binds | binds | binds | binds |  |  |  |  | 
B3 |  | > 1000 | > 1000 | 2.74 | > 1000 | > 1000 |  |  |  |  | ~8 | 0.017 | 2.14 | 1.4 | ~2
B4 | binds | > 1000 | > 1000 | 3.52 | > 1000 | > 1000 |  |  |  |  |  |  |  |  | 
